Tests used:
[1] = target: Ruminococcus albus 8 cellobiose phosphorylase (RalCBP) (Ruminococcus albus 8); assay: SEC; Superdex 200 10/300 in Buffer G (50 mM HEPES-NaOH pH 8.0, 100 mM NaCl, 0.1 mM EDTA); native mass from a calibration curve of standard proteins
RalCDP-CBM37 [2] = system: T1, RalCDP-CBM37; assay: arsenolysis, glucose release, glucose oxidase-peroxidase, Michaelis-Menten fit; type: biochemical, Hominimerdicola alba; settings: phosphorolysis direction measured as arsenolysis; arsenate as co-substrate; 50 mM sodium acetate pH 6.0, 45°C; read-out: K M (mM) (mg/mL)
T1 construct: CBM37 of R. albus 8 Cel5G fused by glycine linker (Gly X9) to C-terminus of full-length RalCDP in one polypeptide; His-tag kept; E. coli BL21 (DE3); homodimer

[3] = target: Ruminococcus albus 8 cellodextrin phosphorylase (RalCDP) (Ruminococcus albus 8); assay: SEC; Superdex 200 10/300 in Buffer G (50 mM HEPES-NaOH pH 8.0, 100 mM NaCl, 0.1 mM EDTA); native mass from a calibration curve of standard proteins
[4] = target: Ral∆N63CDP-CBM37, Ral∆N63CDP fused at its C-terminus to CBM37 of R. albus 8 Cel5G by a glycine linker (Ruminococcus albus 8); assay: as above
RalCDP-CBM37 [5] = system: T1, RalCDP-CBM37; assay: glucose release, glucose oxidase-peroxidase, Michaelis-Menten fit; type: biochemical, Hominimerdicola alba; settings: phosphorolysis direction; Pi as co-substrate; 50 mM sodium acetate pH 6.0, 45°C; read-out: K M (mM) (mg/mL)
[6] = target: RalCDP-CBM37, RalCDP fused at its C-terminus to CBM37 of R. albus 8 Cel5G by a glycine linker (Ruminococcus albus 8); assay: SEC; Superdex 200 10/300 in Buffer G (50 mM HEPES-NaOH pH 8.0, 100 mM NaCl, 0.1 mM EDTA); native mass from a calibration curve of standard proteins
purified protein = substrate: O=P(O)(O)O; assay: purified protein; settings: phosphorolysis direction, co-substrate cellobiose, 50 mM sodium acetate pH 6.0, 45°C
[7] = substrate: O=P(O)(O)O[C@H]1O[C@H](CO)[C@@H](O)[C@H](O)[C@H]1O; assay: Pi release, Malachite Green, Michaelis-Menten fit; type: biochemical, Hominimerdicola alba; settings: synthesis direction (donor), co-substrate glucose, 100 mM sodium acetate pH 6.0, 45°C
From the text: Pi release, Malachite Green, Michaelis-Menten fit on RalCBP

“Ruminococcus albus 8 cellobiose phosphorylase (RalCBP) (enzyme)” was tested. Which stoichiometry N [1] did it give?
Its stoichiometry N is 2.

How did the Km (RalCDP-CBM37 [2]) turn out when `OC[C@H]1O[C@@H](O[C@H]2[C@H](O)[C@@H](O)[C@H](O[C@H]3[C@H](O)[C@@H](O)[C@H](O[C@H]4[C@H](O)[C@@H](O)C(O)O[C@@H]4CO)O[C@@H]3CO)O[C@@H]2CO)[C@H](O)[C@@H](O)[C@@H]1O` (some centres unmarked) [Cellotetraose] was run?
Its Km is 0.24 ± 0.06 mM.

How did the Km (RalCDP-CBM37 [2]) turn out when `OC[C@H]1O[C@@H](O[C@H]2[C@H](O)[C@@H](O)[C@H](O[C@H]3[C@H](O)[C@@H](O)C(O)O[C@@H]3CO)O[C@@H]2CO)[C@H](O)[C@@H](O)[C@@H]1O` (some centres unmarked) [Cellotriose] was run?
The Km was 2.2 ± 0.3 mM.

Which stoichiometry N [3] does the source give for “Ruminococcus albus 8 cellodextrin phosphorylase (RalCDP) (enzyme)” here?
Its stoichiometry N is 2.

With “Ral∆N63CDP-CBM37, Ral∆N63CDP fused at its C-terminus to CBM37 of R. albus 8 Cel5G by a glycine linker (enzyme)” as the molecule, how does the stoichiometry N [4] read?
The stoichiometry N was 5.

How did the Km (RalCDP-CBM37 [5]) turn out when `OC[C@H]1O[C@@H](O[C@H]2[C@H](O)[C@@H](O)C(O)O[C@@H]2CO)[C@H](O)[C@@H](O)[C@@H]1O` (some centres unmarked) [Cellobiose] was run?
Its Km is 11 ± 2 mM.

`OC[C@H]1O[C@@H](O[C@H]2[C@H](O)[C@@H](O)[C@H](O[C@H]3[C@H](O)[C@@H](O)[C@H](O[C@H]4[C@H](O)[C@@H](O)[C@H](O[C@H]5[C@H](O)[C@@H](O)C(O)O[C@@H]5CO)O[C@@H]4CO)O[C@@H]3CO)O[C@@H]2CO)[C@H](O)[C@@H](O)[C@@H]1O` (some centres unmarked) [Cellopentaose] was tested. Which Km (RalCDP-CBM37 [2]) did it give?
Its Km is 0.14 ± 0.03 mM.

“RalCDP-CBM37, RalCDP fused at its C-terminus to CBM37 of R. albus 8 Cel5G by a glycine linker (enzyme)” was tested. Which stoichiometry N [6] did it give?
The stoichiometry N was 2.

B1: RalCBP (Hominimerdicola alba 8) (protein)
chain: MKFGFFDDANKEYVITEPRTPYPWINYLGSQAFFSLISNTAGGYSFYKDARLRRITRYRYNNVPIDMGGRYFYINDNGTVWNPGWSPVKTELDAYTCRHGMGYTIIKGEKNGLEAEVTFFVPNNYNGEVQKVVLTNKSGAEKTFKLFSFAEWCLWDAQDDCTNFQRNFSTGRVEVDGSVIYHKTEYRDRRDHYAFYSVNDSIDGYDTDRDSFIGLYNGFNDPQAVMAGKANDSFADGWSPIASHYKEIKLGAGESKTLIFILGYVEMPVDQKFEADGKTINKVKAKAMMEQFDTPEKVDAGLAELKASWDKLLGILNVDTPDDKVDRMVNIWNQYQCMVTFNLSRSASYFESGIGRGMGFRDSNQDILGFVHQIPDRARERIIDIASTQLPDGGCYHQYQPLTKKGNSDIGGDFSDDPLWMILSVSAYIKETGDWGILDEMVPYDNDESKAQPMLDHLKVSFYHIVNNLGPHGLPLAMRADWNDCINLSCYSDTPGESFQTYTNPKFAAEGGYSKVAESVMVATLFTYTGPNYVAILKHLGKDDEAAAAQAEIDKMKKNVMASAWDGDWFLRAYDSEGKKMGSKECEEGQIFIEPQGFAIMSEIGKEQGADKKTLAAIDERLNTKFGLVLNNPAFTKYYIQYGEISTYPGGYKENAGIFTHNNAWIICAAAYAGQGDQAFKYYSEIAPAFTEETSDIHKTEPYVYGQMIGGKDAGSDIGRPGKNFGQGKNSWLTGTAAWNMVAISQYILGVQPDFDGLKIDPSIPAAWDGFNITRKFRGNTYNIAVKNPDHVCKGIKSVTVDGKKIDGIVMPVFEAGSVHEVEVVMG
notes: full length, His6-tag kept (methods: N-terminus; results: C-terminal), codon-optimized, E. coli BL21 (DE3); homodimer 180 kDa
Which results are given for B1?
Km (purified protein): 580 ± 20 µM; kcat (purified protein): 284 s⁻¹; kcat/Km (purified protein): 490000 M⁻¹ s⁻¹; Km [7]: 2000 ± 200 µM; kcat [7]: 178 ± 2 s⁻¹; kcat/Km [7]: 89000 M⁻¹ s⁻¹

Reference: PMC10119399, “Insights to improve the activity of glycosyl phosphorylases from Ruminococcus albus 8 with cello-oligosaccharides” (Frontiers in Chemistry, 2023)
